From patent publication US20170183388A1 (REGENTS OF THE UNIVERSITY OF COLORADO A BODY CORPORATE, published 2017)

Legend:
BioPure recombinant Aβ42 [1] = target: T1, BioPure recombinant Aβ42 (UniProt P05067 672-713); test: pull-down of whole brain synaptosome proteins on Aβ42 coupled to AminoLink resin, western blot [A]
T1 construct: domain: Aβ(1-42); Recombinant peptide from AmideBio, coupled to AminoLink resin or to SPR chips by EDC-NHS; For treating neurons the peptide came from R Peptide or AmideBio; also called Aβ(1-42); amyloid β

BioPure recombinant Aβ42 [2] = target: T1, BioPure recombinant Aβ42; test: Aβ42 coupled to AminoLink resin, mouse whole brain synaptosome extract, western blot

T1 sequence (P05067 672-713 limits assumed): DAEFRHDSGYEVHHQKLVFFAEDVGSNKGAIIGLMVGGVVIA

Row | binding result (BioPure recombinant Aβ42 [1]) | binding result (BioPure recombinant Aβ42 [2]) | Binder
1 | no binding | – | Mouse synaptoporin (endogenous, from brain synaptosomes) (other, UniProt Q8BGN8 1-265, looked up, SYP paralog, 62% identity as printed; also called SYNPR) MCMVIFAPLFAMFAFATCGGYSGGLRLSVDCVNKTESNLSIDIAFAYPFRLQQVTFEVPTCEGKEQQKLALVGDSSSSAEFFVTVAVFAFLYSLAATVVYIFFQNKYRENNRGPLIDFIVTVVFSFLWLVGSSAWAKGLSDVKVATDPKEVLLLMSACKQPSNKCMAVHSPVMSSLNTSVVFGFLNFILWAGNIWFVFKETGWHSSGQRYLSDPMEKHSSSYNQGRYNQESYGSSGGYSQQANLGPTSDEFGQQPSGPTSFNNQI
2 | no binding | – | Mouse synaptogyrin1 (endogenous, from brain synaptosomes) (other, UniProt O55100 1-234, looked up, SYP paralog, 22% identity as printed; also called SNG1; synaptogyrinl) MEGGAYGAGKAGGAFDPYTLVRQPHTILRVVSWVFSIVVFGSIVNEGYLNNPEEEEEFCIYNRNPNACSYGVTVGVLAFLTCLLYLALDVYFPQISSVKDRKKAVLSDIGVSAFWAFFWFVGFCFLANQWQVSKPKDNPLNEGTDAARAAIAFSFFSIFTWAGQAVLAFQRYQIGADSALFSQDYMDPSQDSSMPYAPYVEPSAGSDPAGMGGTYQHPANAFDAEPQGYQSQGY

Further lines, the binder ahead of its results:

Row | Binder | binding result (BioPure recombinant Aβ42 [1]) | binding result (BioPure recombinant Aβ42 [2])
3 | Mouse MAP2 (endogenous, from brain synaptosomes) (other, UniProt P20357 1-1828, looked up, Loading control; also called loading control) MADERKDEGKAPHWTSASLTEAAAHPHSPEMKDQGGAGEGLSRNANGFPYREEEEGAFGEHRSQGTYSDTKENGINGELTSADRETAEEVSARIVQVVTAEAVAVLKGEQEKEAQHKDQPAALPLAAEETANLPPSPPPSPASEQTATVEEDLLTASKMEFPEQEKFPSSFAEPLDKGEMEFKMPSKPGEDFEHAALVPDTSKTPQDKKDLQGMEGEKLPPVPFAQTFGTNLEDRKQSTEPSIVMPSIGLSAEPPAPKEPKDWFIEMPTESKKDEWGLAAPISPGPLTPMREKDVLEDIPRWEGKQFDSPMPSPFHGGSFTLPLDTMKNERVSEGPRPFAPVFFQSDDKVSLQDPSALATSKESSKDEEPLKDKADKVADVSISEVTTLLGNVHSPVVEGYVGENISGEVKVTTDQEKKETSAPSVQEPTLTETEPQTKLDEKSTVSIEEAVAKKEESFKLRDDKTGVIQTSTEQSFSKEDQKGQEHTIDELKQDSFPISLEQAVTDAAMTSKTLGKVTSEPEAVSERREIQGLFEEKTADKNKLEGAGSATIAEVEMPFYEDKSGMSKYFETSALKEDMTRSTELGSDYYELSDSRGSAQESLDTISPKNQHDEKELQAKASQPSPPAQEAGYSTLAQSYTPDHPSELPEEPSSPQERMFTIDPKVYGEKRDLHSKNKDDLTLSRSLGLGGRSAIEQRSMSINLPMSCLDSIALGFNFGRGHDLSPLASDILTNTSGSMDEGDDYLPPTTPAVEKMPCFPIESKEEEDKAEQAKVTGGQTIQVETSSESPFPAKEYYKNGTVMAPDLPEMLDLAGTRSRLASVSADAEVARRKSVPSEAMLAESSTSLPPVADESPVTVKPDSQLEDMGYCVFNKYTVPLPSPVQDSENLSGESGSFYEGTDDKVRRDLATDLSLIEVKLAAAGRVKDEFTAEKEASPPTSADKSRLSREFDHDRKANDKLDTVLEKSEEHIDSKEHAKESEEMGGKVELFGLGITYDQASTKELITTKDTSPEKTEKGLSSVPEVAEVEPTTKADQGLDFAATKAEPSQLDIKVSDFGQMASGMNVDAGKAIELKFEVAQELTLSSEAPQEADSFMGVESGHIKEGGKVNETEVKEKVTKPDLVHQEAVDKEESYESSGEHESLTMESLKPDEGKKETSPETSLIQDEVALKLSVEIPCPPPVSEADLSTDEKGEVQMEFIQLPKEESTETPDIPAIPSDVTQPQPEAIVSEPAEVPSEEEEIEAGGEYDKLLFRSDTLQISDLLVSESREEFVETCPGELKGVVESVVTIEDDFITVVQTTTDEGESGSHSVRFAAPAQPEEERRPRPHDEELEIEMAAEAQAEPKDGSPDAPATPEKEEVAFSEYKTETYDDYKDETTIDDSIMDADSLWVDTQDDDRSILTEQLETIPKEERAEKDARRPSLEKHRKEKPFKTGRGRISTPERKVAKKEPSTVSRDEVRRKKAVYKKAELAKKSEVQAHSPSRKLILKPAIKYTRPTHLSCVKRKTTAASGDLAQAPGAFKQAKDKVTDGISKSPEKRSSLPRPSSILPPRRGVSGDREENSFSLNSSISSARRTTRSEPIRRAGKSGTSTPTTPGSTAITPGTPPSYSSRTPGTPGTPSYPRTPGTPKSGILVPSEKKVAIIRTPPKSPATPKQLRLINQPLPDLKNVKSKIGSTDNIKYQPKGGQVQIVTKKIDLSHVTSKCGSLKNIRHRPGGGRVKIESVKLDFKEKAQAKVGSLDNAHHVPGGGNVKIDSQKLNFREHAKARVDHGAEIITQSPSRSSVASPRRLSNVSSSGSINLLESPQLATLAEDVTAALAKQGL | no binding | –
4 | Mouse synaptophysin (endogenous, from brain synaptosomes or cultured neurons) (other, UniProt Q62277 1-314, looked up, Endogenous protein detected by western blot; also called SYP; Syp) MLLLADMDVVNQLVAGGQFRVVKEPLGFVKVLQWVFAIFAFATCGSYTGELRLSVECANKTESALNIEVEFEYPFRLHQVYFDAPSCVKGGTTKIFLVGDYSSSAEFFVTVAVFAFLYSMGALATYIFLQNKYRENNKGPMMDFLATAVFAFMWLVSSSAWAKGLSDVKMATDPENIIKEMPMCRQTGNTCKELRDPVTSGLNTSVVFGFLNLVLWVGNLWFVFKETGWAAPFMRAPPGAPEKQPAPGDAYGDAGYGQGPGGYGPQDSYGPQGGYQPDYGQPASGGGGGYGPQGDYGQQGYGQQGAPTSFSNQM | – | binds
